Data on 8 molecules can be found in US20090252683A1 (Amgen, published 2009).

First the molecules themselves.
B1: EGFR HL × SEQ ID NO. 170 (bispecific antibody)
chain: QVQLQQSGPDLVKPGASVKMSCKASGHTFTDCVIIWVKQRAGQGLEWIGQIYPGTGRSYYNEIFKGKATLTADKSSNTVHIQLSSLTSEDSAVYFCALSTLIHGTWFSYWGQGTLVTVSSGGGGSGGGGSGGGGSDIVLTQSPASLPVSLGQRATISCRASQSVSSSTYSYIHWYQQKPGQPPKLLITYASNLESGVPARFSGSGSGTDFTLDIHPVEEDDSSTYYCQHSWEIPFTFGSGTKLEIKSGGGGSEVQLVESGGGLVQPGGSLKLSCAASGFTFNTYAMNWVRQAPGKGLEWVARIRSKYNNYATYYADSVKDRFTISRDDSKNTAYLQMNNLKTEDTAVYYCVRHGNFGNSYVSWFAYWGQGTLVTVSSGGGGSGGGGSGGGGSQTVVTQEPSLTVSPGGTVTLTCRSSTGAVTTSNYANWVQQKPGQAPRGLIGGTNKRAPGTPARFSGSLLGGKAALTLSGVQPEDEAEYYCALWYSNLWVFGGGTKLTVLHHHHHH
notes: the appendix prints the entry with HHHHHH and then *VD (stop and vector residues) at its end
B2: EGFR LH × SEQ ID NO. 194 (bispecific antibody)
chain: DIVLTQSPASLPVSLGQRATISCRASQSVSSSTYSYIHWYQQKPGQPPKLLITYASNLESGVPARFSGSGSGTDFTLDIHPVEEDDSSTYYCQHSWEIPFTFGSGTKLEIKGGGGSGGGGSGGGGSQVQLQQSGPDLVKPGASVKMSCKASGHTFTDCVIIWVKQRAGQGLEWIGQIYPGTGRSYYNEIFKGKATLTADKSSNTVHIQLSSLTSEDSAVYFCALSTLIHGTWFSYWGQGTLVTVSSSGGGGSQTVVTQEPSLTVSPGGTVTLTCRSSTGAVTTSNYANWVQQKPGQAPRGLIGGTNKRAPGTPARFSGSLLGGKAALTLSGVQPEDEAEYYCALWYSNLWVFGGGTKLTVLGGGGSGGGGSGGGGSEVQLVESGGGLVQPGGSLKLSCAASGFTFNTYAMNWVRQAPGKGLEWVARIRSKYNNYATYYADSVKDRFTISRDDSKNTAYLQMNNLKTEDTAVYYCVRHGNFGNSYVSWFAYWGQGTLVTVSSHHHHHH
notes: the appendix prints the entry with HHHHHH and then *VD at its end
B3: EGFR HL × SEQ ID NO. 194 (bispecific antibody)
chain: QVQLQQSGPDLVKPGASVKMSCKASGHTFTDCVIIWVKQRAGQGLEWIGQIYPGTGRSYYNEIFKGKATLTADKSSNTVHIQLSSLTSEDSAVYFCALSTLIHGTWFSYWGQGTLVTVSSGGGGSGGGGSGGGGSDIVLTQSPASLPVSLGQRATISCRASQSVSSSTYSYIHWYQQKPGQPPKLLITYASNLESGVPARFSGSGSGTDFTLDIHPVEEDDSSTYYCQHSWEIPFTFGSGTKLEIKSGGGGSQTVVTQEPSLTVSPGGTVTLTCRSSTGAVTTSNYANWVQQKPGQAPRGLIGGTNKRAPGTPARFSGSLLGGKAALTLSGVQPEDEAEYYCALWYSNLWVFGGGTKLTVLGGGGSGGGGSGGGGSEVQLVESGGGLVQPGGSLKLSCAASGFTFNTYAMNWVRQAPGKGLEWVARIRSKYNNYATYYADSVKDRFTISRDDSKNTAYLQMNNLKTEDTAVYYCVRHGNFGNSYVSWFAYWGQGTLVTVSSHHHHHH
notes: as for B2
B4: SEQ ID NO. 170 × EGFR HL (bispecific antibody)
chain: EVQLVESGGGLVQPGGSLKLSCAASGFTFNTYAMNWVRQAPGKGLEWVARIRSKYNNYATYYADSVKDRFTISRDDSKNTAYLQMNNLKTEDTAVYYCVRHGNFGNSYVSWFAYWGQGTLVTVSSGGGGSGGGGSGGGGSQTVVTQEPSLTVSPGGTVTLTCRSSTGAVTTSNYANWVQQKPGQAPRGLIGGTNKRAPGTPARFSGSLLGGKAALTLSGVQPEDEAEYYCALWYSNLWVFGGGTKLTVLSGGGGSQVQLQQSGPDLVKPGASVKMSCKASGHTFTDCVIIWVKQRAGQGLEWIGQIYPGTGRSYYNEIFKGKATLTADKSSNTVHIQLSSLTSEDSAVYFCALSTLIHGTWFSYWGQGTLVTVSSGGGGSGGGGSGGGGSDIVLTQSPASLPVSLGQRATISCRASQSVSSSTYSYIHWYQQKPGQPPKLLITYASNLESGVPARFSGSGSGTDFTLDIHPVEEDDSSTYYCQHSWEIPFTFGSGTKLEIKHHHHHH
notes: as for B2
B5: SEQ ID NO. 194 × EGFR LH (bispecific antibody)
chain: QTVVTQEPSLTVSPGGTVTLTCRSSTGAVTTSNYANWVQQKPGQAPRGLIGGTNKRAPGTPARFSGSLLGGKAALTLSGVQPEDEAEYYCALWYSNLWVFGGGTKLTVLGGGGSGGGGSGGGGSEVQLVESGGGLVQPGGSLKLSCAASGFTFNTYAMNWVRQAPGKGLEWVARIRSKYNNYATYYADSVKDRFTISRDDSKNTAYLQMNNLKTEDTAVYYCVRHGNFGNSYVSWFAYWGQGTLVTVSSSGGGGSDIVLTQSPASLPVSLGQRATISCRASQSVSSSTYSYIHWYQQKPGQPPKLLITYASNLESGVPARFSGSGSGTDFTLDIHPVEEDDSSTYYCQHSWEIPFTFGSGTKLEIKGGGGSGGGGSGGGGSQVQLQQSGPDLVKPGASVKMSCKASGHTFTDCVIIWVKQRAGQGLEWIGQIYPGTGRSYYNEIFKGKATLTADKSSNTVHIQLSSLTSEDSAVYFCALSTLIHGTWFSYWGQGTLVTVSSHHHHHH
notes: 186 as EGFR LH; the appendix heads it EGFR HL; ends with HHHHHH and *VD in the appendix
B6: SEQ ID NO. 194 × EGFR HL (bispecific antibody)
chain: QTVVTQEPSLTVSPGGTVTLTCRSSTGAVTTSNYANWVQQKPGQAPRGLIGGTNKRAPGTPARFSGSLLGGKAALTLSGVQPEDEAEYYCALWYSNLWVFGGGTKLTVLGGGGSGGGGSGGGGSEVQLVESGGGLVQPGGSLKLSCAASGFTFNTYAMNWVRQAPGKGLEWVARIRSKYNNYATYYADSVKDRFTISRDDSKNTAYLQMNNLKTEDTAVYYCVRHGNFGNSYVSWFAYWGQGTLVTVSSSGGGGSQVQLQQSGPDLVKPGASVKMSCKASGHTFTDCVIIWVKQRAGQGLEWIGQIYPGTGRSYYNEIFKGKATLTADKSSNTVHIQLSSLTSEDSAVYFCALSTLIHGTWFSYWGQGTLVTVSSGGGGSGGGGSGGGGSDIVLTQSPASLPVSLGQRATISCRASQSVSSSTYSYIHWYQQKPGQPPKLLITYASNLESGVPARFSGSGSGTDFTLDIHPVEEDDSSTYYCQHSWEIPFTFGSGTKLEIKHHHHHH
notes: as for B2
B7: SEQ ID NO. 170 × EGFR LH (bispecific antibody)
chain: EVQLVESGGGLVQPGGSLKLSCAASGFTFNTYAMNWVRQAPGKGLEWVARIRSKYNNYATYYADSVKDRFTISRDDSKNTAYLQMNNLKTEDTAVYYCVRHGNFGNSYVSWFAYWGQGTLVTVSSGGGGSGGGGSGGGGSQTVVTQEPSLTVSPGGTVTLTCRSSTGAVTTSNYANWVQQKPGQAPRGLIGGTNKRAPGTPARFSGSLLGGKAALTLSGVQPEDEAEYYCALWYSNLWVFGGGTKLTVLSGGGGSDIVLTQSPASLPVSLGQRATISCRASQSVSSSTYSYIHWYQQKPGQPPKLLITYASNLESGVPARFSGSGSGTDFTLDIHPVEEDDSSTYYCQHSWEIPFTFGSGTKLEIKGGGGSGGGGSGGGGSQVQLQQSGPDLVKPGASVKMSCKASGHTFTDCVIIWVKQRAGQGLEWIGQIYPGTGRSYYNEIFKGKATLTADKSSNTVHIQLSSLTSEDSAVYFCALSTLIHGTWFSYWGQGTLVTVSSHHHHHH
notes: 184 as EGFR LH; the appendix heads it EGFR HL; ends with HHHHHH and *VD in the appendix
B8: EGFR LH × SEQ ID NO. 170 (bispecific antibody)
chain: DIVLTQSPASLPVSLGQRATISCRASQSVSSSTYSYIHWYQQKPGQPPKLLITYASNLESGVPARFSGSGSGTDFTLDIHPVEEDDSSTYYCQHSWEIPFTFGSGTKLEIKGGGGSGGGGSGGGGSQVQLQQSGPDLVKPGASVKMSCKASGHTFTDCVIIWVKQRAGQGLEWIGQIYPGTGRSYYNEIFKGKATLTADKSSNTVHIQLSSLTSEDSAVYFCALSTLIHGTWFSYWGQGTLVTVSSGGGGSEVQLVESGGGLVQPGGSLKLSCAASGFTFNTYAMNWVRQAPGKGLEWVARIRSKYNNYATYYADSVKDRFTISRDDSKNTAYLQMNNLKTEDTAVYYCVRHGNFGNSYVSWFAYWGQGTLVTVSSGGGGSGGGGSGGGGSQTVVTQEPSLTVSPGGTVTLTCRSSTGAVTTSNYANWVQQKPGQAPRGLIGGTNKRAPGTPARFSGSLLGGKAALTLSGVQPEDEAEYYCALWYSNLWVFGGGTKLTVLHHHHHH
notes: as for B2

The target in the assay is T1, human EGFR on A431 cells (human, UniProt P00533 25-1210).
T1 construct: whole, on cells
In words: FACS, A431 cells, 1 µg/ml purified protein, anti-His detection. Here is the method:
In order to test the functionality of the cross-species specific bispecific antibody constructs with regard to binding capability to human and cynomolgus EGFR and CD3, respectively, a FACS analysis was performed. For this purpose the EGFR positive epidermoid carcinoma A431 cells (ATCC, CRL-1555) and CD3 positive human T cell leukemia cell line HPB-ALL (DSMZ, Braunschweig, ACC483) were used to check the binding to human antigens. The binding reactivity to cynomolgus antigens was tested by using the generated cynomolgus EGFR transfectants described in Example 20 and cynomolgus PBMCs which were obtained by Ficoll density gradient centrifugation. 200,000 cells of the respective cell population were incubated for 30 min on ice with 50 μl of the purified protein of the cross-species specific bispecific antibody constructs (1 μg/ml). The cells were washed twice in PBS and binding of the construct was detected with an unlabeled murine Penta His antibody (diluted 1:20 in 50 μl PBS with 2% FCS; Qiagen; Order No. 34660). After washing, bound anti His antibodies were detected with an Fc gamma-specific antibody (Dianova) conjugated to phycoerythrin, diluted 1:100 in 50 μl PBS with 2% FCS. Fresh culture medium was used as a negative control.
Cells were analyzed by flow cytometry on a FACS-Calibur apparatus (Becton Dickinson, Heidelberg). FACS staining and measuring of the fluorescence intensity were performed as described in Current Protocols in Immunology (Coligan, Kruisbeek, Margulies, Shevach and Strober, Wiley-Interscience, 2002).
On the technique in general: In flow cytometry, cells or beads pass a laser one at a time.
For B1, the binding result is given as “binds”. The same measure for B2: “binds”. As for B3, the binding result is listed as “binds”.

Turning to B4, the binding result was “binds”. The same measure for B5: “binds”; for B6: “binds”. Turning to B7, the binding result was “binds”. In the case of B8, the binding result is reported as “binds”.
